# According to patent publication US11248243B2, “Process for the biological production of methacrylic acid and derivatives thereof” (MITSUBISHI CHEMICAL UK LIMITED, priority 2015, dated 2022):
# B1: 4-hydroxybenzoyl-CoA thioesterase (4HBT) (Arthrobacter sp.) (protein)
# chain: MHRTSNGSHATGGNLPDVASHYPVAYEQTLDGTVGFVIDEMTPERATASVEVTDTLRQRWGLVHGGAYCALAEMLATEATVAVVHEKGMMAVGQSNHTSFFRPVKEGHVRAEAVRIHAGSTTWFWDVSLRDDAGRLCAVSSMSIAVRPRRDGLEHHHHHH
# notes: made in house; host or cells: E. coli BL21 (DE3) pLysS pET20b(+)::CtHis-4HBT
# Legend:
# [1] = substrate: CC(C)C(=O)SCCNC(=O)CCNC(=O)[C@H](O)C(C)(C)COP(=O)(O)OP(=O)(O)OC[C@H]1O[C@@H](n2cnc3c(N)ncnc32)[C@H](O)[C@@H]1OP(=O)(O)O; test: Kinetic characterisation of purified carboxy-terminal hexahistidine tagged 4HBT (thioester hydrolysis, DTNB); assay type: biochemical; conditions: other: substrate of purified CtHis-4HBT (0.075 mg/ml for methacrylyl-CoA, 1 mg/ml for isobutyryl-CoA), DTNB 0.5 mM, Lineweaver-Burke plot; 18.0 °C
# Experimental: (§1) Pure carboxy-terminal His-tagged 4HBT enzyme was then prepared by first growing cultures of E. coli BL21 (DE3) pLysS pET20b(+)::CtHis-4HBT and inducing expression in the exact same manner as was performed for E. coli BL21 (DE3) pLysS pET20b(+)::4HBT. […] Cells were harvested by splitting the cell culture into three centrifuge tubes and centrifuging at 5000 g for 20 min at 4° C. Cell pellets were not washed though, and were instead directly stored at −80° C. A cell free extract of carboxy-terminal hexahistidine tagged 4HBT was prepared by re-suspending one of the E. coli BL21 (DE3) pLysS pET20b(+)::CtHis-4HBT cell pellets in binding buffer (6 ml) for a Nickel-sepharose FPLC column. Binding buffer consisted of NaH2PO4 (10 mM), Na2HPO4 (10 mM), NaCl (500 mM), imidazole (30 mM) and was adjusted to pH 7.4 with HCl. Benzonase® nuclease (0.6 μl) was added to the re-suspended cells before they were lysed in the Constant Systems One Shot cell disrupter. The cell lysate was then clarified by centrifugation at 18,000 g for 15 min at 4° C., followed by centrifugation of the supernatant at 57,750 g for 60 min at 4° C. This supernatant was then loaded onto a GE Healthcare HisTrap™ FF Crude column (1 ml) that was equilibrated with binding buffer. […] Protein elution was monitored at 280 nm and fractions were checked for the presence and purity of carboxy-terminal His-tagged 4HBT by SDS-PAGE. […] The latter dilution in potassium phosphate assay buffer and re-concentration was performed once more and the concentration of CtHIS-4HBT protein was determined by UV280 absorbance in a NanoDrop ND1000 spectrophotometer, using a molar extinction coefficient of 20970M^−1·cm^−1 and a molecular weight of 17516.5 mg·mmol^−1 for the carboxy-terminal His-tagged 4HBT enzyme. The values for the molar extinction coefficient and molecular weight were determined using the Expasy ProtParam tool, using the amino acid translation of the gene sequence encoding the carboxy-terminal his tagged 4HBT enzyme (SEQ. ID 5) in the pET20b(+)::CtHis-4HBT plasmid. […]
# (§2) Methacrylyl-CoA hydrolysis reactions (200 μl) were performed in Nunc 96 well plates using purified CtHis-4HBT protein (0.075 mg·ml^−1) and DTNB (0.5 mM) to monitor the reaction. Initial rates were determined for methacrylyl-CoA starting concentrations of 0.375 mM, 0.3 mM, 0.225 mM, 0.15 mM and 0.075 mM. […]
# (§3) Isobutyryl-CoA hydrolysis reactions (200 μl) were also performed in Nunc 96 well plates, using purified CtHIS-4HBT protein (1 mg·ml^−1) and DTNB (0.5 mM) to monitor the reaction. Initial rates were determined for isobutyryl-CoA starting concentrations of 0.5 mM, 0.4 mM, 0.3 mM, 0.2 mM and 0.1 mM. […]
# [2] = substrate: C=C(C)C(=O)SCCNC(=O)CCNC(=O)[C@H](O)C(C)(C)COP(=O)(O)OP(=O)(O)OC[C@H]1O[C@@H](n2cnc3c(N)ncnc32)[C@H](O)[C@@H]1OP(=O)(O)O; test: as above; assay type: biochemical; conditions: other: substrate of purified CtHis-4HBT (0.075 mg/ml for methacrylyl-CoA, 1 mg/ml for isobutyryl-CoA), DTNB 0.5 mM, Lineweaver-Burke plot; 18.0 °C
# Experimental: as §1, §2, §3
protein,measurement,setting,value
B1,Km,[1],3000 µM
same,Vmax,[1],16.7 nmols·mg^−1·min^−1
same,Km,[2],1600 µM
same,Vmax,[2],470 nmols·mg^−1·min^−1
